Results: publication PMC13208732

How the values were obtained:
[1] = target: human vascular endothelial growth factor A, isoform VEGFA165 (Homo sapiens); test: ELISA; competition with biotinylated VEGFR1, no heparin; details: Fc fusion
[2] = target: human vascular endothelial growth factor A, isoform VEGFA165 (Homo sapiens); test: ELISA; competition with biotinylated NRP1, no heparin; details: Fc fusion
[3] = target: human vascular endothelial growth factor A, isoform VEGFA165 (human) (UniProt P15692); test: ELISA; competition with NRP1, no heparin
[4] = target: human vascular endothelial growth factor A, isoform VEGFA165 (human) (UniProt P15692); test: ELISA; competition with VEGFR1, no heparin

Sequence of human vascular endothelial growth factor A, isoform VEGFA165 (human) (P15692 other isoform, or with tags, fused parts or gaps): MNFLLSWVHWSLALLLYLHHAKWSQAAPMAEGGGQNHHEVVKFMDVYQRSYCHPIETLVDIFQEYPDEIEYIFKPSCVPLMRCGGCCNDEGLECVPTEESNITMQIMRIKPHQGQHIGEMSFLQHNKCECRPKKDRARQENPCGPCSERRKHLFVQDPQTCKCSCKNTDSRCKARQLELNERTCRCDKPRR
Sequence of human vascular endothelial growth factor A, isoform VEGFA165 (Homo sapiens) (P15692 other isoform, or with tags, fused parts or gaps): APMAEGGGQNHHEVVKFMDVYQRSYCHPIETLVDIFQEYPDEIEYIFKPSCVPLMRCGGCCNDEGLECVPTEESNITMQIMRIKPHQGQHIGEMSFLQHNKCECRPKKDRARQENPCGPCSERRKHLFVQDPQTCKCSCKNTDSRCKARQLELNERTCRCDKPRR
Sequence of VEGFR1 domains 1 to 6 fused to a C-terminal Fc, biotinylated (P17948 27-654): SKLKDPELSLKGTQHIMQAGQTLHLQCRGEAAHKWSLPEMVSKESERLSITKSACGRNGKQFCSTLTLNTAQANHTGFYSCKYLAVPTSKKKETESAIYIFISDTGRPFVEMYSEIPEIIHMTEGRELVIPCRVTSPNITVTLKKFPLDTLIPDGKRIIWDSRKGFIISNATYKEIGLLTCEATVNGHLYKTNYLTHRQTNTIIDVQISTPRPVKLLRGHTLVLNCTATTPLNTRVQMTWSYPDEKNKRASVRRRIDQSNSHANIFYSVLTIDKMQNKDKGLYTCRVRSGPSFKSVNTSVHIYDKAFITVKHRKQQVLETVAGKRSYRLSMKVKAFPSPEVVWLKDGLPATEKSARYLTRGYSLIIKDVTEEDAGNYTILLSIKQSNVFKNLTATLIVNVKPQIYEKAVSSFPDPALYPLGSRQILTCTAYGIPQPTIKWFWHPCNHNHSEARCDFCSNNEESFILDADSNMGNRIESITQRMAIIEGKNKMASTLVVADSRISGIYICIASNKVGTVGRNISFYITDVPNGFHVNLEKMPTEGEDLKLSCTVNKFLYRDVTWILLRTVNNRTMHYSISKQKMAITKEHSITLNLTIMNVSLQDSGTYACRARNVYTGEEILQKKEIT

VEGFR1 domains 1 to 6 fused to a C-terminal Fc, biotinylated (from UniProt P17948 27-654)
IC50 [1]: 16.3 nM

NRP1 receptor domains α1α2β1β2 fused to a C-terminal Fc, biotinylated (from UniProt O14786 22-583)
IC50 [2]: 52.8 nM

G6-31
IC50 [3]: 1.9 nM | IC50 [4]: 58.2 nM
